B1: MNAT1 (parent)
chain: SLREYNDFLEEVEEIVFNLTNNVD

Variants of: B1
Test: protein stability index of a GFP-peptide fusion (GPS, HEK-293T) (PSI 1-6); higher = more stable
Conditions: c terminus: a fixed tail appended
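Further: lentivirally expressed fusions sorted by FACS into six bins by GFP to DsRed ratio, PSI derived from sequencing read proportions per bin multiplied by bin number.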

Variant | protein stability index
SLREYNDFLEEQEEIVFNLTNNVD | 4.08
SLREYNDFLEEMEEIVFNLTNNVD | 1.74
SLREYNDFLEEIEEIVFNLTNNVD | 2.13
SLREYNDFLEEREEIVFNLTNNVD | 4.19
SLREYNDFLEECEEIVFNLTNNVD | 2.9
SLREYNDFLEIVEEIVFNLTNNVD | 1.89
SLREYNDFLERVEEIVFNLTNNVD | 2.17
SLREYNDFLEFVEEIVFNLTNNVD | 1.49
SLREYNDFLEKVEEIVFNLTNNVD | 2.07
SLREYNDFLEWVEEIVFNLTNNVD | 2.46
SLREYNDFLEHVEEIVFNLTNNVD | 2.07
SLREYNDFLENVEEIVFNLTNNVD | 1.68
SLREYNDFLEGVEEIVFNLTNNVD | 2.13
SLREYNDFLEMVEEIVFNLTNNVD | 1.87
SLREYNDFLEDVEEIVFNLTNNVD | 2.51
SLREYNDFLETVEEIVFNLTNNVD | 1.97
SLREYNDFLEQVEEIVFNLTNNVD | 1.72
SLREYNDFLEYVEEIVFNLTNNVD | 2.23
SLREYNDFLEPVEEIVFNLTNNVD | 3.1
SLREYNDFLESVEEIVFNLTNNVD | 1.73
SLREYNDFLEEVEEIMFNLTNNVD | 2.51
SLREYNDFLEEVEEIWFNLTNNVD | 2.83
SLREYNDFLEEVEEIYFNLTNNVD | 2.63
SLREYNDFLEEVEEINFNLTNNVD | 4.53

Variant | protein stability index
SLREYNDFLEEVEEIKFNLTNNVD | 2.84
SLREYNDFLEEVEEILFNLTNNVD | 1.14
SLREYNDFLEEVEEICFNLTNNVD | 3
SLREYNDFLEEVEEIRFNLTNNVD | 3.04
SLREYNDFLEEVEEIFFNLTNNVD | 1.75
SLREYNDFLEEVEEIDFNLTNNVD | 4.87
SLREYNDFLEEVEEIGFNLTNNVD | 3.86
SLREYNDFLEEVEEITFNLTNNVD | 3.21
SLREYNDFLEEVEEISFNLTNNVD | 4.58
SLREYNDFLEEVEEIIFNLTNNVD | 2.46
SLREYNDFLEEVEEIHFNLTNNVD | 3.86
SLREYNDFLEEVEEIQFNLTNNVD | 3.99
SLREYNDFLEEVEEIAFNLTNNVD | 3.36
SLREYNDFLEEVEEIPFNLTNNVD | 4.18
SLREYNDFLEEVEEIEFNLTNNVD | 4.36
SLREYNDFLEEVEEIVFALTNNVD | 1.84
SLREYNDFLEEVEEIVFWLTNNVD | 2.52
SLREYNDFLEEVEEIVFCLTNNVD | 1.71
SLREYNDFLEEVEEIVFYLTNNVD | 1.4
SLREYNDFLEEVEEIVFPLTNNVD | 2.71
SLREYNDFLEEVEEIVFSLTNNVD | 2.16
SLREYNDFLEEVEEIVFGLTNNVD | 2.38
SLREYNDFLEEVEEIVFRLTNNVD | 1.6
SLREYNDFLEEVEEIVFELTNNVD | 2.16

Variant | protein stability index
SLREYNDFLEEVEEIVFDLTNNVD | 2.36
SLREYNDFLEEVEEIVFMLTNNVD | 1.84
SLREYNDFLEEVEEIVFKLTNNVD | 2.01
SLREYNDFLEEVEEIVFTLTNNVD | 2.55
SLREYNDFLEEVEEIVFVLTNNVD | 2.32
SLREYNDFLEEVEEIVFHLTNNVD | 1.85
SLREYNDFLEEVEEIVFFLTNNVD | 2.22
SLREYNDFLEEVEEIVFQLTNNVD | 1.73
SLREYNDFLEEVEEYVFNLTNNVD | 3.35
SLREYNDFLEEVEECVFNLTNNVD | 3.63
SLREYNDFLEEVEETVFNLTNNVD | 3.77
SLREYNDFLEEVEEFVFNLTNNVD | 2.23
SLREYNDFLEEVEELVFNLTNNVD | 1.9
SLREYNDFLEEVEEPVFNLTNNVD | 4.71
SLREYNDFLEEVEEAVFNLTNNVD | 3.78
SLREYNDFLEEVEEHVFNLTNNVD | 3.9
SLREYNDFLEEVEEDVFNLTNNVD | 4.82
SLREYNDFLEEVEEMVFNLTNNVD | 2.51
SLREYNDFLEEVEEGVFNLTNNVD | 4.71
SLREYNDFLEEVEERVFNLTNNVD | 3.84
SLREYNDFLEEVEEWVFNLTNNVD | 2.16
SLREYNDFLEEVEEKVFNLTNNVD | 4.08
SLREYNDFLEEVEEEVFNLTNNVD | 4.66
SLREYNDFLEEVEESVFNLTNNVD | 3.89

Variant | protein stability index
SLREYNDFLEEVEENVFNLTNNVD | 4.25
SLREYNDFLEEVEEQVFNLTNNVD | 3.87
SLREYNDFLEEVEEVVFNLTNNVD | 3.31
SLREYNDFLEEVEEIVFNQTNNVD | 4.07
SLREYNDFLEEVEEIVFNWTNNVD | 1.63
SLREYNDFLEEVEEIVFNRTNNVD | 3.34
SLREYNDFLEEVEEIVFNETNNVD | 4.55
SLREYNDFLEEVEEIVFNNTNNVD | 3.76
SLREYNDFLEEVEEIVFNDTNNVD | 4.43
SLREYNDFLEEVEEIVFNKTNNVD | 4.26
SLREYNDFLEEVEEIVFNYTNNVD | 3.06
SLREYNDFLEEVEEIVFNFTNNVD | 2.24
SLREYNDFLEEVEEIVFNTTNNVD | 3.6
SLREYNDFLEEVEEIVFNATNNVD | 3.2
SLREYNDFLEEVEEIVFNGTNNVD | 4.19
SLREYNDFLEEVEEIVFNPTNNVD | 4.05
SLREYNDFLEEVEEIVFNVTNNVD | 2.97
SLREYNDFLEEVEEIVFNMTNNVD | 2.89
SLREYNDFLEEVEEIVFNSTNNVD | 4.18
SLREYNDFLEEVEEIVFNCTNNVD | 3.34
SLREYNDFLEEVEEIVFNHTNNVD | 4.43
SLREYNDFLEEVEEIVFNITNNVD | 1.84

From the supplement of paper PMC10567573
